In article PMC11241375, “In Silico Screening of Bioactive Peptides in Stout Beer and Analysis of ACE Inhibitory Activity” (Foods, 2024):
pIC50: −log10 of the molar value. Like-named read-outs stand apart in the source and are kept apart here. No end group written: not given here.

Tests used:
ACE [1] = biological target: T1, ACE (Homo sapiens, UniProt P12821); assay: ACEI activity in vitro (ACE activity assay kit); format: biochemical; details: 10 μL ACE + 40 μL inhibitor + 50 μL substrate, fluorescence ex 320 nm/em 405 nm, 37 °C, 30 min, synthesized peptide, triplicate, mean ± SD
T1 construct: purchased Sigma-Aldrich
T1 sequence (P12821 30-1306, species assumed): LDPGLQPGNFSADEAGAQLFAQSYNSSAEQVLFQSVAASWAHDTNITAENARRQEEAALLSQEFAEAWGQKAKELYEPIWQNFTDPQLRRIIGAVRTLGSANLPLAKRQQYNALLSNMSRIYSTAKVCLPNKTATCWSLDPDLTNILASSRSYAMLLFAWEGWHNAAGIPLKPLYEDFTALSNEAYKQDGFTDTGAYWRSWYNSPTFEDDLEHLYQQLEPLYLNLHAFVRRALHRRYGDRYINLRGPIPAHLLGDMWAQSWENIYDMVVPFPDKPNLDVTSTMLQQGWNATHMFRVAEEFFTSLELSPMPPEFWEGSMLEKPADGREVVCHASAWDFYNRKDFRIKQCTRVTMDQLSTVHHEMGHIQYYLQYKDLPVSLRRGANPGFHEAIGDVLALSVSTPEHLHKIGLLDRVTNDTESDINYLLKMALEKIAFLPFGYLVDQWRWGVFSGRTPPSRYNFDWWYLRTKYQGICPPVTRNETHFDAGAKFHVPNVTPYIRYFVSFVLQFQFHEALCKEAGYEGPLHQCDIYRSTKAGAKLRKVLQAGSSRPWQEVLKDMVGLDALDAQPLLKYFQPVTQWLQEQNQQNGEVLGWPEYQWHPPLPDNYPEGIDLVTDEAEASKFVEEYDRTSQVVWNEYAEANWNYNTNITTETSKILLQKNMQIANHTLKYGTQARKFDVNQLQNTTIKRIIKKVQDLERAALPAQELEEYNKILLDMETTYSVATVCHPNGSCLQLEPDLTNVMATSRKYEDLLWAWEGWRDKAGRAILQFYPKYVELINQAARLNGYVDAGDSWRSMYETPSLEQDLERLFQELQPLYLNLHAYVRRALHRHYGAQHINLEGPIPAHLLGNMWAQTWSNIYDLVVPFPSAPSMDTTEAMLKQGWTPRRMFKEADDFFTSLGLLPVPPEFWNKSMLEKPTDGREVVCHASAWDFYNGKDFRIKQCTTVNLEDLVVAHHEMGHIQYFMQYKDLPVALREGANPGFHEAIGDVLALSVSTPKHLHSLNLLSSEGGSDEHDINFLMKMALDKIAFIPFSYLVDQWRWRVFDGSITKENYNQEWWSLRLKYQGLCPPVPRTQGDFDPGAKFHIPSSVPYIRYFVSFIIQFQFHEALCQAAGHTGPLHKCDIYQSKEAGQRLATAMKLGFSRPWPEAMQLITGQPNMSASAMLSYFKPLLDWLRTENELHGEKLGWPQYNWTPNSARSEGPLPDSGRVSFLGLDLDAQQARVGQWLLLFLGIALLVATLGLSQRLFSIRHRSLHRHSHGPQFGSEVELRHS
Description: ACEI activity determination was determined using an assay kit. Briefly, 10 μL of ACE and 40 μL of the inhibitor were added to the microplate and mixed thoroughly, then 50 μL of the substrate was added to start the reaction. The fluorescence was detected at an excitation wavelength of 320 nm and an emission wavelength of 405 nm at 37 °C for 30 min. The ACE activity of the peptide was calculated as follows:ACEI activity = [(KStd − KSample)/KStd] × DF × 100% where KSample means the slope of the sample curve after subtracting the blank. (RFU/min); KStd means the slope of the standard curve after subtracting the blank (RFU/min); DF means the dilution factor.
Each experiment was conducted in triplicate, the data were presented as mean ± standard deviation. SYBYL-X 2.1.1 software was utilized for evaluating the molecular docking visualization. LigPlot 1.4.5 software was employed to illustrate the 2D interactions. MD simulation data analysis was performed using GROMACS 2022.3 software.

ACE [2] = biological target: T1, ACE; details: cited from earlier work
Excerpt: Recently, several ACEI peptides have been identified and evaluated in brewed wine. Wu et al. discovered a polypeptide in Chinese Baijiu for the first time, which indicated an ACE inhibitory effect with an IC50 of […] [11]. […] Beer is one of the most globally cons ... || In this study, peptides in stout beer were identified using UPLC-Q-Orbitrap-MS^2, and a total of 41 peptides with ALC ≥ 85% were selected (Table 1). The peptides PMAPLPRSGPE and […] from Italian beer, LPQQQAQFK, STEWHLD, PPPVHD, LVLPGELAK, LAVMQQQQQQ, PPPVHDTD, PPVPHDTD, LPEDAKVE, HAVSEGTKAVT, LPGELAK, PMAPLPRSGEP, TVSGF, LNFDPNR, LALDTRVG, LDTRVGV, and RVALVY from draft beer, which were previously identified, also appeared in our results. The polypeptides present in beer primarily originate from malt protein. Previous studies have shown that the soluble protein content in m ...

[3] = peptides identified from Qingke Baijiu
[4] = known ACEI peptides in BIOPEP/AHTPDB

| Substance | pIC50 (ACE [2]; [3]) | pIC50 (ACE [2]; [4]) | other results |
| --- | --- | --- | --- |
| DLGGFFGFQR [DLGGFFGFQR] | – | – | pIC50 (ACE [1]): 4.61 |
| FPLQPHQP [peptide from Qingke Baijiu, reference compound] | 5.30 | – | – |
| LNFDPNR [peptide of stout beer; already known ACEI peptide] | – | 4.41 | – |
| LPQQQAQFK [peptide of stout beer; already known ACEI peptide] | – | 4.58 | – |
| LPVGP [peptide from Qingke Baijiu, reference compound] | 5.04 | – | – |
